Measured values reported in the supplement of paper PMC9112550, “Optimization of the antimicrobial peptide Bac7 by deep mutational scanning” (BMC Biology, 2022).

Each sequence was assayed on Escherichia coli TOP10 (assay: shrunken log2 fold change of peptide-encoding DNA abundance (4.5 h post-induction vs induction); higher = less antimicrobial activity (less host growth inhibition)). Settings: time post-induction: 4.5 h; library: site-saturation at positions 5, 18, 19, 20.
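Also: peptides expressed intracellularly from a pBAD plasmid library in pooled LB shake-flask culture, induced with 0.3% L-arabinose, DNA abundance read by NGS, three biological replicates, DESeq2 with apeglm shrinkage.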

| Sequence | shrunken log2 fold change |
| --- | --- |
| RRIRHRPPRLPRPRPRPHYWPRP | -0.588 |
| RRIRHRPPRLPRPRPRPKGNPRP | -0.124 |
| RRIRRRPPRLPRPRPRPNHEPRP | -0.0399 |
| RRIRQRPPRLPRPRPRPKCDPRP | 0.151 |
| RRIRNRPPRLPRPRPRPACKPRP | 0.169 |
| RRIRHRPPRLPRPRPRPIMTPRP | -0.895 |
| RRIRVRPPRLPRPRPRPSPDPRP | -0.226 |
| RRIRQRPPRLPRPRPRPLMLPRP | -0.213 |
| RRIRWRPPRLPRPRPRPFWNPRP | -0.175 |
| RRIRCRPPRLPRPRPRPCSRPRP | -0.0999 |
| RRIRDRPPRLPRPRPRPDTGPRP | 0.018 |
| RRIRARPPRLPRPRPRPHDYPRP | 0.141 |
| RRIRWRPPRLPRPRPRPYLNPRP | -0.777 |
| RRIRWRPPRLPRPRPRPWAVPRP | 0.0624 |
| RRIRIRPPRLPRPRPRPALVPRP | 0.228 |
| RRIRERPPRLPRPRPRPKMLPRP | -0.0332 |
| RRIRWRPPRLPRPRPRPKYMPRP | -0.501 |
| RRIRQRPPRLPRPRPRPHSMPRP | -0.438 |
| RRIRLRPPRLPRPRPRPMNQPRP | -0.302 |
| RRIRVRPPRLPRPRPRPLIIPRP | -0.445 |
| RRIRIRPPRLPRPRPRPVEAPRP | -0.205 |
| RRIRLRPPRLPRPRPRPLLQPRP | 0.138 |
| RRIRSRPPRLPRPRPRPFNSPRP | -0.116 |
| RRIRWRPPRLPRPRPRPHKRPRP | 0.0239 |
| RRIRIRPPRLPRPRPRPTWRPRP | 0.274 |

| Sequence | shrunken log2 fold change |
| --- | --- |
| RRIRCRPPRLPRPRPRPDISPRP | 0.0772 |
| RRIRERPPRLPRPRPRPTVDPRP | -0.0352 |
| RRIRVRPPRLPRPRPRPNRAPRP | 0.202 |
| RRIRYRPPRLPRPRPRPHTQPRP | -1.1 |
| RRIRPRPPRLPRPRPRPQYQPRP | -0.263 |
| RRIRQRPPRLPRPRPRPDVSPRP | 0.0409 |
| RRIRSRPPRLPRPRPRPHMTPRP | -0.384 |
| RRIRTRPPRLPRPRPRPKGRPRP | -0.219 |
| RRIRYRPPRLPRPRPRPHVQPRP | -0.0701 |
| RRIRDRPPRLPRPRPRPWCCPRP | 0.0175 |
| RRIRVRPPRLPRPRPRPKVYPRP | -0.433 |
| RRIRRRPPRLPRPRPRPLTQPRP | 0.342 |
| RRIRMRPPRLPRPRPRPGMWPRP | 0.292 |
| RRIRSRPPRLPRPRPRPAHYPRP | -0.131 |
| RRIRDRPPRLPRPRPRPTWPPRP | 0.501 |
| RRIRPRPPRLPRPRPRPWDRPRP | 0.0969 |
| RRIRERPPRLPRPRPRPVVTPRP | -0.95 |
| RRIRMRPPRLPRPRPRPRSSPRP | 0.923 |
| RRIRERPPRLPRPRPRPHFWPRP | 0.16 |
| RRIRLRPPRLPRPRPRPWMCPRP | -0.492 |
| RRIRQRPPRLPRPRPRPMHNPRP | -0.28 |
| RRIRSRPPRLPRPRPRPHDAPRP | -0.142 |
| RRIRTRPPRLPRPRPRPLDNPRP | -0.396 |
| RRIRIRPPRLPRPRPRPRNQPRP | -0.542 |
| RRIRDRPPRLPRPRPRPFTFPRP | -0.167 |

| Sequence | shrunken log2 fold change |
| --- | --- |
| RRIRDRPPRLPRPRPRPMEAPRP | -0.0266 |
| RRIRCRPPRLPRPRPRPKWPPRP | -0.0352 |
| RRIRKRPPRLPRPRPRPLQVPRP | 0.333 |
| RRIRHRPPRLPRPRPRPPNLPRP | 0.189 |
| RRIRMRPPRLPRPRPRPPDQPRP | 2.01 |
| RRIRDRPPRLPRPRPRPVSHPRP | 0.00713 |
| RRIRYRPPRLPRPRPRPGRCPRP | -0.102 |
| RRIRKRPPRLPRPRPRPTQLPRP | 0.65 |
| RRIRLRPPRLPRPRPRPKIIPRP | -0.69 |
| RRIRFRPPRLPRPRPRPNPPPRP | 0.544 |
| RRIRQRPPRLPRPRPRPFYCPRP | -0.314 |
| RRIRARPPRLPRPRPRPTFEPRP | 0.42 |
| RRIRKRPPRLPRPRPRPQKAPRP | -0.0155 |
| RRIRSRPPRLPRPRPRPPNNPRP | -0.404 |
| RRIRGRPPRLPRPRPRPFSPPRP | 0.0723 |
| RRIRGRPPRLPRPRPRPFTHPRP | 0.0753 |
| RRIRCRPPRLPRPRPRPIWDPRP | 0.166 |
| RRIRSRPPRLPRPRPRPHWFPRP | -0.0389 |
| RRIRYRPPRLPRPRPRPNAQPRP | -0.0122 |
| RRIRIRPPRLPRPRPRPIVTPRP | -0.429 |
| RRIRQRPPRLPRPRPRPRNKPRP | -0.68 |
| RRIRYRPPRLPRPRPRPEWFPRP | -0.0405 |
| RRIRWRPPRLPRPRPRPDLYPRP | 0.0586 |
| RRIRRRPPRLPRPRPRPFREPRP | 0.163 |
| RRIRRRPPRLPRPRPRPTHEPRP | 0.338 |

| Sequence | shrunken log2 fold change |
| --- | --- |
| RRIRQRPPRLPRPRPRPMFWPRP | 0.0915 |
| RRIRDRPPRLPRPRPRPGNDPRP | 0.0652 |
| RRIRIRPPRLPRPRPRPAEIPRP | -0.484 |
| RRIRQRPPRLPRPRPRPCDYPRP | 0.07 |
| RRIRPRPPRLPRPRPRPYQPPRP | -0.125 |
| RRIRIRPPRLPRPRPRPNNRPRP | -0.557 |
| RRIRWRPPRLPRPRPRPQKLPRP | 0.0774 |
| RRIRVRPPRLPRPRPRPRVQPRP | 0.328 |
| RRIRPRPPRLPRPRPRPALYPRP | -0.0126 |
| RRIRWRPPRLPRPRPRPTAKPRP | 0.0717 |
| RRIRKRPPRLPRPRPRPVHSPRP | 0.034 |
| RRIRPRPPRLPRPRPRPGFWPRP | 0.61 |
| RRIRIRPPRLPRPRPRPMNGPRP | 0.00766 |
| RRIRYRPPRLPRPRPRPYFHPRP | -1.4 |
| RRIRFRPPRLPRPRPRPWGGPRP | 0.162 |
| RRIRYRPPRLPRPRPRPFPYPRP | -0.0356 |
| RRIRVRPPRLPRPRPRPETCPRP | 0.437 |
| RRIRNRPPRLPRPRPRPYWSPRP | -0.195 |
| RRIRARPPRLPRPRPRPENEPRP | 0.868 |
| RRIRCRPPRLPRPRPRPAYFPRP | -0.361 |
| RRIRVRPPRLPRPRPRPLITPRP | -0.439 |
| RRIRIRPPRLPRPRPRPIFDPRP | -0.237 |
| RRIRIRPPRLPRPRPRPCKTPRP | -0.168 |
| RRIRLRPPRLPRPRPRPERFPRP | 0.219 |
| RRIRMRPPRLPRPRPRPWSCPRP | -0.0965 |

| Sequence | shrunken log2 fold change |
| --- | --- |
| RRIRKRPPRLPRPRPRPITKPRP | -0.0212 |
| RRIRMRPPRLPRPRPRPKHLPRP | 0.142 |
| RRIRFRPPRLPRPRPRPCMDPRP | -0.336 |
| RRIRMRPPRLPRPRPRPHKVPRP | 0.14 |
| RRIRGRPPRLPRPRPRPAKMPRP | 0.538 |
| RRIRERPPRLPRPRPRPLRDPRP | -0.0299 |
| RRIRVRPPRLPRPRPRPRHEPRP | 0.193 |
| RRIRNRPPRLPRPRPRPWLKPRP | -0.0113 |
| RRIRDRPPRLPRPRPRPPNGPRP | 0.0163 |
| RRIRRRPPRLPRPRPRPMPCPRP | 0.0929 |
| RRIRDRPPRLPRPRPRPFGHPRP | -0.138 |
| RRIRSRPPRLPRPRPRPYERPRP | -0.0323 |
| RRIRPRPPRLPRPRPRPMSVPRP | 0.0754 |
| RRIRKRPPRLPRPRPRPALDPRP | 0.772 |
| RRIRCRPPRLPRPRPRPEDQPRP | 1.21 |
| RRIRMRPPRLPRPRPRPMSRPRP | 0.0997 |
| RRIRHRPPRLPRPRPRPADIPRP | -0.102 |
| RRIRVRPPRLPRPRPRPSVCPRP | 0.0223 |
| RRIRYRPPRLPRPRPRPRHKPRP | -0.208 |
| RRIRQRPPRLPRPRPRPWKDPRP | -0.0211 |
| RRIRERPPRLPRPRPRPRPGPRP | 0.464 |
| RRIRMRPPRLPRPRPRPLRFPRP | 0.74 |
| RRIRQRPPRLPRPRPRPIDIPRP | 0.107 |
| RRIRVRPPRLPRPRPRPACDPRP | 0.284 |
| RRIRCRPPRLPRPRPRPGGSPRP | 0.0334 |

| Sequence | shrunken log2 fold change |
| --- | --- |
| RRIRNRPPRLPRPRPRPKFHPRP | -0.078 |
| RRIRSRPPRLPRPRPRPYIDPRP | -0.071 |
| RRIRRRPPRLPRPRPRPKCWPRP | 0.307 |
| RRIRNRPPRLPRPRPRPYNNPRP | -1.19 |
| RRIRVRPPRLPRPRPRPSWHPRP | -0.00555 |
| RRIRSRPPRLPRPRPRPNVAPRP | -0.0788 |
| RRIRYRPPRLPRPRPRPFGPPRP | -0.0934 |
| RRIRYRPPRLPRPRPRPNAIPRP | -0.0737 |
| RRIRNRPPRLPRPRPRPEPWPRP | 0.0625 |
| RRIRPRPPRLPRPRPRPPIFPRP | -0.246 |
| RRIRCRPPRLPRPRPRPFFKPRP | -0.197 |
| RRIRSRPPRLPRPRPRPMFRPRP | -0.338 |
| RRIRNRPPRLPRPRPRPVGRPRP | 0.118 |
| RRIRARPPRLPRPRPRPHPKPRP | 0.508 |
| RRIRDRPPRLPRPRPRPDTAPRP | -0.0593 |
| RRIRGRPPRLPRPRPRPKQFPRP | 0.566 |
| RRIRIRPPRLPRPRPRPTWDPRP | 0.372 |
| RRIRQRPPRLPRPRPRPLQRPRP | -0.0166 |
| RRIRKRPPRLPRPRPRPTQFPRP | 1.1 |
| RRIRRRPPRLPRPRPRPHLNPRP | -0.194 |
| RRIRNRPPRLPRPRPRPVWCPRP | -0.226 |
| RRIRKRPPRLPRPRPRPANVPRP | -0.196 |
| RRIRPRPPRLPRPRPRPLCRPRP | 0.0255 |
| RRIRVRPPRLPRPRPRPPPTPRP | 0.933 |
| RRIRCRPPRLPRPRPRPYIMPRP | -1.48 |
